Paper PMC10663500, “High-throughput analysis system of interaction kinetics for data-driven antibody design” (Scientific Reports, 2023)

Columns and labels:
[1] = target: T1, mouse programmed cell death protein 1 Fc fusion protein (mPD-1-Fc), mPD-1 C60S (aa 25-167) (Mus musculus, UniProt Q02242, stabilised); assay: SPR; Carterra LSA; Fab from the ammonium sulfate precipitate of the culture supernatant immobilised on a NiHC200M chip; hPD-1 (1-1024 nM) or mPD-1-Fc (4-1024 nM) as analyte, fourfold dilution series, no regeneration; HBS-EP pH 7.4, 25 °C; medians over the spots of a construct, KD = koff/kon; settings: one partner purified
T1 construct: not cleaved; source: Expi293F, purified (Protein A, SEC; dimeric fraction); not shown: Fc (human), C-terminal, kept
Summary of the method: (§1)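 Human PD-1 (1–1024 nM) or mouse PD-1-Fc (4–1024 nM), in fourfold series, was flowed without regeneration over Fabs captured in duplicate on a NiHC200M chip (Carterra LSA, 25 °C), using 10 min association and 5 min dissociation. The Fabs had been recovered from Brevibacillus culture supernatants by ammonium sulfate precipitation and redissolved in HBS-EP. For binding constants, KD was defined as koff/kon from per-construct medians, with rates fitted by the kdka model under slow- or fast-dissociation settings (best fit) and unconfirmed binders set to kon 10^3 […] and koff 10^−2 s^−1.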

[2] = target: T2, human programmed cell death protein 1 (hPD-1) C93S (aa 24-167) (Homo sapiens, UniProt Q15116, C93S); assay: as above; settings: one partner purified
T2 construct: made as a fusion with a TEV site and human Fc; the Fc was cut off with TEV protease; source: Expi293F, purified (Protein A, TEV cleavage of Fc, SEC; monomer fractions); not shown: Fc (human), C-terminal, cleaved
T2 sequence (Q15116 24-167 C93S): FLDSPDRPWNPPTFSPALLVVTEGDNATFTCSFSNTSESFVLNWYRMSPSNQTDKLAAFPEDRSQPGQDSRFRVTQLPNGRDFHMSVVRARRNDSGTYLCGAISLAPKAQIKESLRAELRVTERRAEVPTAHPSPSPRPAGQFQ
Summary of the method: as §1

Row | Binder | Kd [1] | koff [1] | kon [1] | Kd [2] | koff [2] | kon [2]
1 | toripalimab Fab H.G56Y (Fab, V domains shown, heavy chain of Sm3 with this change; numbers count from the chain's first residue; as the light chain of Sm3; source: Brevibacillus, culture supernatant (ammonium sulfate precipitate); not shown: 6xHis, C-terminal, kept; 6xHN, C-terminal, kept) VH: QGQLVQSGAEVKKPGASVKVSCKASGYTFTDYEMHWVRQAPIHGLEWIGVIESETYGTAYNQKFKGRVTITADKSTSTAYMELSSLRSEDTAVYYCAREGITTVATTYYWYFDVWGQGTTVTVSS VL: DVVMTQSPLSLPVTLGQPASISCRSSQSIVHSNGNTYLEWYLQKPGQSPQLLIYKVSNRFSGVPDRFSGSGSGTDFTLKISRVEAEDVGVYYCFQGSHVPLTFGQGTKLEIK | 502 nM | 0.0174 s⁻¹ | 34700 M⁻¹ s⁻¹ | < 1.7 nM | < 1e-05 s⁻¹ | 5890 M⁻¹ s⁻¹
2 | toripalimab Fab H.N61A (Fab, V domains shown, heavy chain of Sm3 with this change; numbers count from the chain's first residue; as the light chain of Sm3; source: Brevibacillus, culture supernatant (ammonium sulfate precipitate); not shown: 6xHis, C-terminal, kept; 6xHN, C-terminal, kept) VH: QGQLVQSGAEVKKPGASVKVSCKASGYTFTDYEMHWVRQAPIHGLEWIGVIESETGGTAYAQKFKGRVTITADKSTSTAYMELSSLRSEDTAVYYCAREGITTVATTYYWYFDVWGQGTTVTVSS VL: DVVMTQSPLSLPVTLGQPASISCRSSQSIVHSNGNTYLEWYLQKPGQSPQLLIYKVSNRFSGVPDRFSGSGSGTDFTLKISRVEAEDVGVYYCFQGSHVPLTFGQGTKLEIK | 32 nM | 0.00141 s⁻¹ | 44100 M⁻¹ s⁻¹ | < 0.355 nM | < 1e-05 s⁻¹ | 28100 M⁻¹ s⁻¹
3 | toripalimab Fab H.D31Y (Fab, V domains shown, heavy chain of Sm3 with this change; numbers count from the chain's first residue; as the light chain of Sm3; source: Brevibacillus, culture supernatant (ammonium sulfate precipitate); not shown: 6xHis, C-terminal, kept; 6xHN, C-terminal, kept) VH: QGQLVQSGAEVKKPGASVKVSCKASGYTFTYYEMHWVRQAPIHGLEWIGVIESETGGTAYNQKFKGRVTITADKSTSTAYMELSSLRSEDTAVYYCAREGITTVATTYYWYFDVWGQGTTVTVSS VL: DVVMTQSPLSLPVTLGQPASISCRSSQSIVHSNGNTYLEWYLQKPGQSPQLLIYKVSNRFSGVPDRFSGSGSGTDFTLKISRVEAEDVGVYYCFQGSHVPLTFGQGTKLEIK | 291 nM | 0.0133 s⁻¹ | 45600 M⁻¹ s⁻¹ | < 0.349 nM | < 1e-05 s⁻¹ | 28600 M⁻¹ s⁻¹
4 | toripalimab Fab H.T58Y (Fab, V domains shown, heavy chain of Sm3 with this change; numbers count from the chain's first residue; as the light chain of Sm3; source: Brevibacillus, culture supernatant (ammonium sulfate precipitate); not shown: 6xHis, C-terminal, kept; 6xHN, C-terminal, kept) VH: QGQLVQSGAEVKKPGASVKVSCKASGYTFTDYEMHWVRQAPIHGLEWIGVIESETGGYAYNQKFKGRVTITADKSTSTAYMELSSLRSEDTAVYYCAREGITTVATTYYWYFDVWGQGTTVTVSS VL: DVVMTQSPLSLPVTLGQPASISCRSSQSIVHSNGNTYLEWYLQKPGQSPQLLIYKVSNRFSGVPDRFSGSGSGTDFTLKISRVEAEDVGVYYCFQGSHVPLTFGQGTKLEIK | 215 nM | 0.0107 s⁻¹ | 49600 M⁻¹ s⁻¹ | 1.26 nM | 1.54e-05 s⁻¹ | 12300 M⁻¹ s⁻¹
5 | toripalimab Fab H.Q62Y (Fab, V domains shown, heavy chain of Sm3 with this change; numbers count from the chain's first residue; as the light chain of Sm3; source: Brevibacillus, culture supernatant (ammonium sulfate precipitate); not shown: 6xHis, C-terminal, kept; 6xHN, C-terminal, kept) VH: QGQLVQSGAEVKKPGASVKVSCKASGYTFTDYEMHWVRQAPIHGLEWIGVIESETGGTAYNYKFKGRVTITADKSTSTAYMELSSLRSEDTAVYYCAREGITTVATTYYWYFDVWGQGTTVTVSS VL: DVVMTQSPLSLPVTLGQPASISCRSSQSIVHSNGNTYLEWYLQKPGQSPQLLIYKVSNRFSGVPDRFSGSGSGTDFTLKISRVEAEDVGVYYCFQGSHVPLTFGQGTKLEIK | 186 nM | 0.00625 s⁻¹ | 33600 M⁻¹ s⁻¹ | < 1.29 nM | < 1e-05 s⁻¹ | 7750 M⁻¹ s⁻¹
6 | toripalimab Fab H.G57Y (Fab, V domains shown, heavy chain of Sm3 with this change; numbers count from the chain's first residue; as the light chain of Sm3; source: Brevibacillus, culture supernatant (ammonium sulfate precipitate); not shown: 6xHis, C-terminal, kept; 6xHN, C-terminal, kept) VH: QGQLVQSGAEVKKPGASVKVSCKASGYTFTDYEMHWVRQAPIHGLEWIGVIESETGYTAYNQKFKGRVTITADKSTSTAYMELSSLRSEDTAVYYCAREGITTVATTYYWYFDVWGQGTTVTVSS VL: DVVMTQSPLSLPVTLGQPASISCRSSQSIVHSNGNTYLEWYLQKPGQSPQLLIYKVSNRFSGVPDRFSGSGSGTDFTLKISRVEAEDVGVYYCFQGSHVPLTFGQGTKLEIK | 90.3 nM | 0.00664 s⁻¹ | 73500 M⁻¹ s⁻¹ | 3.35 nM | 0.000138 s⁻¹ | 41100 M⁻¹ s⁻¹
7 | toripalimab Fab H.K63Y (Fab, V domains shown, heavy chain of Sm3 with this change; numbers count from the chain's first residue; as the light chain of Sm3; source: Brevibacillus, culture supernatant (ammonium sulfate precipitate); not shown: 6xHis, C-terminal, kept; 6xHN, C-terminal, kept) VH: QGQLVQSGAEVKKPGASVKVSCKASGYTFTDYEMHWVRQAPIHGLEWIGVIESETGGTAYNQYFKGRVTITADKSTSTAYMELSSLRSEDTAVYYCAREGITTVATTYYWYFDVWGQGTTVTVSS VL: DVVMTQSPLSLPVTLGQPASISCRSSQSIVHSNGNTYLEWYLQKPGQSPQLLIYKVSNRFSGVPDRFSGSGSGTDFTLKISRVEAEDVGVYYCFQGSHVPLTFGQGTKLEIK | 75.7 nM | 0.00458 s⁻¹ | 60400 M⁻¹ s⁻¹ | < 0.226 nM | < 1e-05 s⁻¹ | 44300 M⁻¹ s⁻¹
